Laboratory results from article PMC2064158 (The Journal of Cell Biology, 2006).
Changes are numbered by the printed parent chain.

T1: ScMad2^RQEA (recombinant, Arg126-Glu/Gln127-Ala) (S. cerevisiae, UniProt P40958 1-196, R126E | Q127A)
T1 sequence: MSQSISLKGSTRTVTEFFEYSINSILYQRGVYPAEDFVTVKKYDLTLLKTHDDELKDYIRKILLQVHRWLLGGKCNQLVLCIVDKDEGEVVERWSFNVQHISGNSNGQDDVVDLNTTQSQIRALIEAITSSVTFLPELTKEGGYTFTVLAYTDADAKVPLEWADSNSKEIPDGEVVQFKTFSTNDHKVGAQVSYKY

T2: AlexaFluor488-ScMad2^wt (S. cerevisiae, UniProt P40958 1-196, AlexaFluor488 succimidyl ester reactive dye, covalent, final dye/protein ratio ~0.5)
T2 sequence: T1 sequence with E126R, A127Q

B1: ScMad2^wt (recombinant S. cerevisiae Mad2, wild type) (natural protein)
chain: T1 sequence with E126R, A127Q
B2: GST-ScCdc20^184–210 (domain or fragment)
chain: IVFKQNVAEACGLDMNKRILQYMPEPP
B3: ScCdc20^195–211 synthetic peptide (peptide)
peptide: GLDMNKRILQYMPEPPK
B4: GST-ScMad1^563–590 (domain or fragment)
chain: QLLQEKLEKLTKLKEKKIRILQLRDGPF
B5: ScMad2^ΔC (recombinant, six residues deleted from the C terminus) (domain or fragment)
chain: MSQSISLKGSTRTVTEFFEYSINSILYQRGVYPAEDFVTVKKYDLTLLKTHDDELKDYIRKILLQVHRWLLGGKCNQLVLCIVDKDEGEVVERWSFNVQHISGNSNGQDDVVDLNTTQSQIRALIRQITSSVTFLPELTKEGGYTFTVLAYTDADAKVPLEWADSNSKEIPDGEVVQFKTFSTNDHKVGA
B6: HsCdc20^111–138 synthetic peptide (peptide)
peptide: EHQKAWALNLNGFDVEEAKILRLSGKPQ

Key:
[1] = biological target: C-Mad2^wt–Cdc20^195–211 complex (S. cerevisiae, UniProt P40958;P26309); test: SEC
[2] = biological target: B1; test: pull-down
[3] = biological target: T1, ScMad2^RQEA (recombinant, …); test: ITC
AlexaFluor488-ScMad2^wt = biological target: T2, AlexaFluor488-ScMad2^wt; test: SEC
[4] = biological target: B1; test: SEC
AlexaFluor488-HsMad2^wt = AlexaFluor488-HsMad2^wt (human, UniProt Q13257 1-205, AlexaFluor488, covalent); test: SEC
Chain of AlexaFluor488-HsMad2^wt (Q13257 whole entry): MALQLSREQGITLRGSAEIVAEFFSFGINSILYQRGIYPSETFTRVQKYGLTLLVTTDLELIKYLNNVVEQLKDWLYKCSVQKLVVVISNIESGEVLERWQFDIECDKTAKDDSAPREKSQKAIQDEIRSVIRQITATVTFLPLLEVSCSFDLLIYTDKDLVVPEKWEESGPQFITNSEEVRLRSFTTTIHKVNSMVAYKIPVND

For B1, the “percent of total Mad2 in the dimer peak at a 4:1 Mad2/Cdc20^195–211 ratio” value [1] was about 50%.

B2: binds [2].

B3: binds [3]; binds (AlexaFluor488-ScMad2^wt).

B4: binds [2].

B5: binds [4].

B6: binds (AlexaFluor488-HsMad2^wt).
